Laboratory results as given in US20060123518A1, “Methods for culturing cereal endosperm” (Pioneer Hi-Bred International, Inc., priority 2004, published 2006).

Tested on: aleurone cell development
Assay: Chemical genetics with in vitro cultured endosperm expressing Ltp2-driven ZsYellow in aleurone cells
Type: cell-based, maize
Conditions: in vitro endosperm cultures in liquid proliferation medium, 96 well plates; predicted result
Experimental: In vitro cultured endosperm produced by the methods of the present invention and that express the ZsYellow fluorescent protein in aleurone cells under the control of the Ltp2 promoter are plated in 96 well microtiter plates with one endosperm added per well in liquid proliferation medium. To each well, a candidate chemical to be evaluated is added. The effect of the chemical on aleurone cell development is evaluated, for example, as the loss of aleurone cell identity as detected as lack of yellow fluorescence, either on the whole surface of the in vitro cultured endosperm or in patches on the surface. For example, a chemical genetics approach can be used to assess the function of the Dek1 gene product. The defective kernel 1 (dek1) gene is required for aleurone cell development in the endosperm of maize grains and this gene encodes a membrane protein of the calpain gene superfamily (Lid et al. (2002) Proc. Natl. Acad. Sci. USA. 99(8):5460-5465). Using mutant sector analysis, it has been shown that, if an aleurone cell looses the Dek1 gene function, the cell loses its aleurone cell identity and converts to a starchy endosperm cell fate (Becraft et al. (2000) Development 127:4039-4048). n this example, in vitro endosperm cultures are exposed to the calpain inhibitor calpastatin by the method described above.

B1: calpastatin (protein, UniProt P20810 1-708, looked up)
Calpastatin: MNPTETKAIPVSQQMEGPHLPNKKKHKKQAVKTEPEKKSQSTKLSVVHEKKSQEGKPKEHTEPKSLPKQASDTGSNDAHNKKAVSRSAEQQPSEKSTEPKTKPQDMISAGGESVAGITAISGKPGDKKKEKKSLTPAVPVESKPDKPSGKSGMDAALDDLIDTLGGPEETEEENTTYTGPEVSDPMSSTYIEELGKREVTIPPKYRELLAKKEGITGPPADSSKPIGPDDAIDALSSDFTCGSPTAAGKKTEKEESTEVLKAQSAGTVRSAAPPQEKKRKVEKDTMSDQALEALSASLGTRQAEPELDLRSIKEVDEAKAKEEKLEKCGEDDETIPSEYRLKPATDKDGKPLLPEPEEKPKPRSESELIDELSEDFDRSECKEKPSKPTEKTEESKAAAPAPVSEAVCRTSMCSIQSAPPEPATLKGTVPDDAVEALADSLGKKEADPEDGKPVMDKVKEKAKEEDREKLGEKEETIPPDYRLEEVKDKDGKPLLPKESKEQLPPMSEDFLLDALSEDFSGPQNASSLKFEDAKLAAAISEVVSQTPASTTQAGAPPRDTSQSDKDLDDALDKLSDSLGQRQPDPDENKPMEDKVKEKAKAEHRDKLGERDDTIPPEYRHLLDDNGQDKPVKPPTKKSEDSKKPADDQDPIDALSGDLDSCPSTTETSQNTAKDKCKKAASSSKAPKNGGKAKDSAKTTEETSKPKDD
effect on aleurone cell identity (yellow fluorescence on endosperm surface): lack of fluorescence in spot on the surface
